Results on 167 variants are retold here after the RNAGym collection of RNA variant scans (doi:10.7554/elife.90254).

B1: OR4K15 (parent)
chain: GUUAACGGUCAUAGGCCAUGGAAACUAGGAGCACCAUUUCGCUGCCAGUGAAGAAAUGAACAAAGAAAAUCUGGGCCAGGCAGGCAUCAAAAGAAAUAGUCUUGCGCUCAACCAGAAAGUCUGUAAUCAUUUUAAGGGUA

Variants of B1 are the subject of this data set. Description: self-cleavage, relative activity (ratio to wild type); higher = more cleavage; in vitro, sequencing; the parent is a self-cleaving ribozyme.
For A24G G136C, the self-cleavage is 1.47. Under A11U A90U stands 1.19. Under U19G A94U stands 1.64; under A36U A56U, 1.12. Under A51G A126C stands 0.91; under A30G A110U, 1.1; under A54G A78G, 0.3.

Take U87A U103C: the self-cleavage turned out to be 0.68. With A52U the figure was 0.8; with A68G A89G, 2.04; with A36G A94G, 1.86. On to A47U A78U, for which the self-cleavage was found to be 0.25.

As to U3C A118U, the self-cleavage was determined as 1.94.

Take A67C A89U: the self-cleavage worked out at 2.57. Turning to A24G A116G, the self-cleavage was 0.61. On to U39G A90G, for which the self-cleavage came to 1.08.

On to A68G G75A, for which the self-cleavage was determined as 0.1. Under A5G C88A stands 0.8; under U72G U87C, 0.31; under A68U U97G, 1.94. With G15U A82U the figure was 0.23; with A33G A51G, 0.75. Under A82U A91G stands 0.11; under U49A A126G, 0.99; under A56G A111U, 0.

On to G79A U120G, for which the self-cleavage is 0.11. Under C45A U120A stands 2.12; under U49A A134G, 0.74. With A68G A69G the figure was 0.87. With A36G A116G the figure was 0.76. On to A22G U122G, for which the self-cleavage is 1.67. Under U3C U12C stands 1.24; under U87G A91G, 0.11.

As for A59C U132C, the self-cleavage is 1.64. With A69G C71A the figure was 0.43; with G84A A126G, 0.87; with U70C C113G, 0.02. With A4G U43C the figure was 1.35; with A92U A126U, 1.02; with G7A A23G, 0.87. For the variant C10A A110G, the self-cleavage was determined as 0.31. Under A11G A111U stands 0.11. Under A52G A114U stands 0.14. For C10U U19C, the self-cleavage turned out to be 1.34. Under G84A U103C stands 0.82. Under U49C A92U stands 1.42; under U39C A135C, 1.38; under A47U U132G, 0.61. With A117U U127C the figure was 0.61. In the case of A94U A118C, the self-cleavage worked out at 1.53. As to U9A U120A, the self-cleavage worked out at 1.36.

For the variant A54U C109U, the self-cleavage amounted to 0.39. With U39A A68G the figure was 1.32. As for A23G C71U, the self-cleavage worked out at 0.31. With A55G A60G the figure was 1; with U100C U122G, 2.48; with A36U A135U, 1.85. Under A111G U122A stands 0.01.

Turning to A56G C105U, the self-cleavage worked out at 0.12. Under U102C U133C stands 2.27; under A27G G50A, 2.45.

For the variant U49G A59U, the self-cleavage is 1.34. Under G41C A98G stands 0.57; under A23G C77U, 2.07; under A13U A60U, 2.26. Consider U3C C105U, for which the self-cleavage stood at 0.06. With A59G A64G the figure was 1.37; with A59G A64U, 0.74; with A36G G136A, 1.79. With A89G A92U the figure was 1.57. Under C71A U103C stands 0.11; under U39C U108A, 0.03; under A67G C101A, 0.19.

As to U38C G79A, the self-cleavage stood at 0.22.

Regarding A27G A59G, the self-cleavage was 1.03. Under C128A stands 0.84; under A125U C128U, 1.62. Under A33G A114U stands 0.02; under U26C A27C, 2.1; under U19A U49A, 1.05. With U19A U120C the figure was 0.79.

With A94U A111G, the self-cleavage was 0.02.

Regarding A59U A92G, the self-cleavage is 0.79. Under A59U U108C stands 0.02; under G20A U132C, 1.92. Under A4G U102C stands 1.36; under A78G U122C, 0.19. Under U103A U108A stands 0.02; under A63U A95G, 1.78; under U108C A126U, 0.01.

On to A94C, for which the self-cleavage is 1.69. With A22G A63C the figure was 1.25; with U2A A36U, 1.18. C25U A30G: the self-cleavage came to 1.24. With U43C A64U the figure was 1.82; with A78U A94U, 0.4; with A67G A111G, 0.02.

For the variant U3A A64G, the self-cleavage stood at 1.11.

Consider U19A U72A, for which the self-cleavage was found to be 0.21. Under G53U U70C stands 1.29; under A18G U87G, 0.98; under A24C A89G, 1.68. Under G79U A135G stands 0.02; under G104A A126G, 0.02; under U49C G123U, 0.88. Under G21U A59G stands 1.68; under C81A A92G, 0.26; under A114C U122C, 0.01. On to A110U A117C, for which the self-cleavage was 0.29.

In the case of A47C A92G, the self-cleavage was 0.95.

Turning to G7A U100C, the self-cleavage came out at 2.22.

As for A36G A55U, the self-cleavage was found to be 1.38. Under C17U A95G stands 2.06; under A56G G75C, 0.19; under A78U A96G, 0.38.

A51G A69G: the self-cleavage worked out at 1.24. With A54G A59G the figure was 0.84. Turning to A5G U102C, the self-cleavage is 1.34.

For C35A A66G, the self-cleavage worked out at 0.76. Turning to U2G A23G, the self-cleavage came to 0.75. Under U37C G44A stands 1.56. Under G74A A82U stands 0.32; under U2A, 0.8; under A116G G136A, 1.65. For U39C U100A, the self-cleavage is 0.56. Under A95G A135G stands 2.42; under A36U C71U, 0.49; under A54U U100C, 1.43.

For the variant U39C A111G, the self-cleavage was 0.02. In the case of A91G A114C, the self-cleavage came to 0.02. Under A27G A30C stands 1.14; under U102C A126U, 1.39. Under U37C U139C stands 1.72; under U38A A56C, 1.55. Under U43A A111G stands 0.03; under G1A U72C, 0.39. On to A24G A118U, for which the self-cleavage was determined as 0.51. Under A66G A114C stands 0.06; under A51G A116U, 0.05. With A51G A116G the figure was 0.48; with G84C U127C, 0.22; with C32G A95G, 1.87. Turning to A33G A68U, the self-cleavage stood at 1.02.

U57C A66G: the self-cleavage was 0.31. With A55U A111C the figure was 0.06; with U43A A117U, 1.18; with A24U C76U, 0.06. With G50U A62C the figure was 2.27; with G74U U120C, 0.08. With A13G U120C the figure was 0.6.

In the case of A13G U120A, the self-cleavage was 1.9. With A4G G50U the figure was 1.39; with A118G A129G, 0.29. Under U38G stands 1.59; under A63C A126U, 1.62. Under A54G U102C stands 1.41.

As to A64G A126C, the self-cleavage amounted to 1.16. As to A118U U131C, the self-cleavage stood at 0.37.

Regarding A47U A110C, the self-cleavage came to 0.13. Under A90G A114U stands 0.02. With A111G A134U the figure was 0.02. Consider A111G A134G, for which the self-cleavage came to 0.01. U131C U133A: the self-cleavage amounted to 0.91. Under A36U A60U stands 2.08. Under U9C U102A stands 1.31; under A13C A135G, 1.04; under C40U, 1.57.
